As a reminder, the stoichiometry N is the number of molecules, sites or subunits per partner or assembly.

In paper PMC6635019 one finds stoichiometry N data, which are given here for 2 substances.

One assay addresses gramicidin A. The assay is described as follows: native MS.
The next assay concerns the target LL-37 (human). Description: native MS.

“And” between values parts separate entries of the source, which are not always exact repeats. Equal values may be shown once.

For gramicidin A (peptide), in the assay with gramicidin A, the stoichiometry N came to 2. As to LL-37 (peptide), in the assay with LL-37 (human), the stoichiometry N is 2 and 3 and 4.
